According to US20160272706A1 (AstraZeneca / MedImmune, published 2016):

B1: BAK1183H4 antibody (antibody, V domains shown)
VH: QVQLVQSGAEVKKPGASVKVSCKASGYTFTNYGLSWVRQAPGQGLEWMGWINYDGGNTQYGQEFQGRVTMTTDTSTSTAYMELRSLRSDDTAVYYCARDSSSSWARWFFDLWGRGTLVTVSS
VL: SYVLTQPPSVSVAPGKTARIPCGGNIIGSKLVHWYQQKPGQAPVLVIYDDGDRPSGIPERFSGSNSGNTATLTISRVEAGDEADYYCQVWDTGSDPVVFGGGTKLTVL
notes: also called 1183H04; BAK1183H04
B2: 1183H4_VH_VL_nonGL IgG1-YTE (antibody, V domains shown)
VH: QVQLVQSGAEVKKPGASVKVSCKASGYTFTNYGLSWVRQAPGQGLEWMGWINYDGGNTQYGQEFQGRVTMTTDTSTSTAYMELRSLRSDDTAVYYCARDSSSSWARWFFDLWGRGTLVTVSS
VL: SYVLTQPPSVSVAPGKTARIPCGGNIIGSKLVHWYQQKPGQAPVLVIYDDGDRPSGIPERFSGSNSGNTATLTISRVEAGDEADYYCQVWDTGSDPVVFGGGTKLTVL
notes: Non-germlined parent as IgG1 with the YTE mutations (M252Y/S254T/T256E, EU); also called Parent IgG1-YTE; parent clone
B3: 13NG0073 (antibody, V domains shown)
VH: QVQLVQSGAEVKKPGASVKVSCKASGYTFTNYGLSWVRQAPGQGLEWMGWINYDGGNTQYGQEFQGRVTMTTDTSTSTAYMELRSLRSDDTAVYYCARDSSSSWARWFFDLWGRGTLVTVSS
VL: SYVLTQPPSVSVAPGKTARIPCGGNLIGARLVHWYQQKPGQAPVLIIMDDIDRPSGIPERFSGSNSGNTATLTISRVEAGDEADYYCQVWDTGSRPVVFGGGTKLTVL
notes: IgG in the KinExA assay; also called IL13NG0073
B4: 13NG0088 (scFv, V domains shown)
VH: QVQLVQSGAEVKKPGASVKVSCKASGYTFTNYGLSWVRQAPGQGLEWMGWINYDGGNTQYGQEFQGRVTMTTDTSTSTAYMELRSLRSDDTAVYYCARDSSSSWARWFFDLWGRGTLVTVSS
VL: SYVLTQPPSVSVAPGKTARIPCGGNLIGARLVHWYQQKPGQAPVLVIMDDIDRPSGIPERFSGSNSGNTATLTISRVEAGDEADYYCQVWDTGSRPVVFGGGTKLTVL
notes: purified scFv from the mini-recombination library; member of group m20; also called ZZ0SEC-C01; copies: 1 + 1
B5: 13NG0074 (antibody, V domains shown)
VH: QVQLVQSGAEVKKPGASVKVSCKASGYTFTNYGLSWVRQAPGQGLEWMGWINYDGGNTQYGQEFQGRVTMTTDTSTSTAYMELRSLRSDDTAVYYCARDSSSSWARWFFDLWGRGTLVTVSS
VL: SYVLTQPPSVSVAPGKTARIPCGGNLIGARLVHWYQQKPGQAPVLIMFDDQDRPSGIPERFSGSNSGNTATLTISRVEAGDEADYYCQVWDTGSLPVVFGGGTKLTVL
notes: IgG in the KinExA assay

What was measured:
[1] = target: T1, Human IL-13 (human, UniProt P35225 35-146); assay: BIAcore
T1 construct: also called human interleukin 13 (Peprotech); the antigen

[2] = target: T1, Human IL-13; assay: biochemical receptor-ligand inhibition assay, purified scFv titrated; the IL-13 receptor used is not named in Example 1
[3] = target: T1, Human IL-13; assay: IC50 of the parent scFv divided by IC50 of the clone, biochemical receptor-ligand inhibition assay, purified scFv
[4] = target: T1, Human IL-13; assay: IC50 of the parent scFv divided by IC50 of the clone, biochemical receptor-ligand inhibition assay, purified scFv (second panel)
[5] = target: T1, Human IL-13; assay: biochemical receptor-ligand inhibition assay, purified scFv titrated (second panel); the IL-13 receptor used is not named in Example 1
[6] = target: FLAG-tagged human IL-13 (R130 variant) (human, UniProt P35225 35-146); assay: HTRF receptor-ligand competition; FLAG-tagged human IL-13 (312.5 pM) against DyLight650-labelled human IL-13Rα2 (10 nM); geometric mean
[7] = target: T1, Human IL-13; assay: KinExA at 37° C., IgG fixed at 100 or 4 pM, human IL-13 titrated

Binder	Kd [1]	IC50 [2]	Fld improvement [3]	Fld improvement [4]	IC50 [5]	IC50 [6]	Kd [7]
B1	0.081 nM	40.6 nM	1 fold	1 fold	46 nM	–	–
B2	–	–	–	–	–	1.34 nM	–
B3	–	8.09 nM	5.02 fold	–	–	–	0.0046 nM
B4	–	–	–	7 fold	6.53 nM	–	–
B5	–	10.8 nM	3.76 fold	–	–	–	0.004 nM
